# FireProtDB (doi:10.1021/bi052091o)
# “And” between values parts separate entries of the source, which are not always exact repeats. Equal entries are not always repeated.
# B1: Fatty acid-binding protein, intestinal, P02693 (parent)
# chain: MAFDGTWKVDRNENYEKFMEKMGINVVKRKLGAHDNLKLTITQEGNKFTVKESSNFRNIDVVFELGVDFAYSLADGTELTGTWTMEGNKLVGKFKRVDNGKELIAVREISGNELIQTYTYEGVEAKRIFKKE
# Variants of: B1
# Conditions: Rattus norvegicus; pH 7; 25 °C; Urea; Fluorescence; NaPO4 25 mM; NaCl 75 mM; structure 1IFB; whole UniProt chain shown
Variant,ddG of mutation (higher = less stable) [kcal/mol],denaturant m value,denaturant midpoint (higher = more stable),unfolding free energy
MAFDGTWKVDRNENYEKFMEKMGINVVKRKLGAHDNLKLTITQEGNKFTVKESSNFRNIDVVFELGVDFAYSLADGTELTGTYTMEGNKLVGKFKRVDNGKELIAVREISGNELIQTYTYEGVEAKRIFKKE [W83Y],-0.09,1.38 kcal/mol/M and 1.1 kcal/mol/M,3.54 M and 3.6 M,4.88 kcal/mol and 3.99 kcal/mol
MAFDGTWKVDRNENYEKFMEKMGINVVKRKLGAHDNLKLTITQEGNKFTVKESSNFRNIDVVFELGVDAAYSLADGTELTGTWTMEGNKLVGKFKRVDNGKELIAVREISGNELIQTYTYEGVEAKRIFKKE [F69A],-1.38,1.76 kcal/mol/M,3.52 M,6.17 kcal/mol
MAFDGTYKVDRNENYEKFMEKMGINVVKRKLGAHDNLKLTITQEGNKFTVKESSNFRNIDVVFELGVDFAYSLADGTELTGTWTMEGNKLVGKFKRVDNGKELIAVREISGNELIQTYTYEGVEAKRIFKKE [W7Y],0.93,1.09 kcal/mol/M and 0.77 kcal/mol/M,3.52 M and 3.8 M,3.86 kcal/mol and 2.93 kcal/mol
MAFDGTWKVDRNENYEKFMEKMGINVVKRKLGAHDNLKLTITQEGNKFTVKESSNFRNIDVVFELGVDFAYSLADGTELTGTWTMEGNKLVGKAKRVDNGKELIAVREISGNELIQTYTYEGVEAKRIFKKE [F94A],2.42,1.3 kcal/mol/M and 0.77 kcal/mol/M,1.83 M and 2.53 M,2.37 kcal/mol and 1.94 kcal/mol
